Source: US20250082608A1, “TREATMENT AND PREVENTION OF GLOMERULAR DISEASE” (Singapore Health Services PTE LTD., priority 2021, published 2025)
“Also recorded” adds a separate entry of the source.

What was measured:
[1] = tested on: rheumatoid synovial cells; conditions: upon treatment; cited from earlier work
Col4a3−/− mice [2] = conditions: cited from earlier work
Col4a3−/− mice [3] = assay: Lifespan study in Col4a3−/− mice, anti-IL11 and ramipril alone or in combination, Example 3; assay type: in vivo, mouse; conditions: X203 20 mg/kg twice a week, ramipril 10 mg/kg 6 days/week, from 6 weeks of age; for mean percentage lifespan extension: over lifespan of untreated Col4a3−/− mice
Experimental: Col4a3^−/− (Col4a3^tm1Dec) mice were housed as described in Example 2.2. For lifespan studies, the mice were intraperitoneally administered either anti-IL11 (X203; twice a week, 20 mg/kg) or IgG isotype control (11 E10; twice a week, 20 mg/kg) alone or in combination with ramipril (10 mg/kg; 6 days/week) starting from 6 weeks of age, until death ensued.

Col4a3−/− mice [4] = assay: Treatment study in Col4a3−/− mice: body weight and kidney weight; assay type: in vivo, mouse
Experimental: (§1) Col4a3^−/− (Col4a3^tm1Dec) mice were purchased from The Jackson Laboratory (https://www.jax.org/strain/002908). Mice were housed in temperatures of 21-24° C. with 40-70% humidity on a 12 h light/12 h dark cycle and provided with food and water ad libitum. For treatment study, Col4a3^−/− were administered 20 mg/kg of anti-IL11 (X203) or IgG isotype control (11 E10) by intraperitoneal (IP) injection starting from 6 weeks of age twice a week for 2.5 weeks; wild-type littermates were used as controls. Mice were sacrificed for blood and kidney collection when they were 8.5-week-old. For lifespan study, IgG/X203 was administered to 6-week-old Col4a3^−/− (2×/week) until death ensued.
Over recent years, antibodies that inhibit IL11 signaling in mouse and human cells have been developed^15,17. One of these neutralizing IL11 antibodies (X203) or an IgG control were administered to 6-week-old Col4a3^−/− mice, the time point when initiation of ramipril has proven ineffective^6, and examined renal pathologies at 8.5 weeks of age, as compared to age-matched wild-type controls (FIG. 3A).

Col4a3−/− mice [5] = assay: Lifespan study in Col4a3−/− mice, Example 2; assay type: in vivo, mouse
Experimental: as §1
Statistical analyses were performed using GraphPad Prism software (version 8). Statistical significance between control and experimental groups were analysed by twosided Student's t tests or by one-way ANOVA as indicated in the figure legends. P values were corrected for multiple testing according to Tukey when several conditions were compared to each other within one experiment. Comparison analysis for two parameters from two different groups were performed by two-way ANOVA. Survival curves were analyzed by Gehan-Breslow-Wilcoxon test. The criterion for statistical significance was P<0.05.

129-Col4a3^tm1Dec/J mice = assay: Survival of mice homozygous for Col4a3^tm1Dec (mouse model of Alport syndrome), Example 1; assay type: in vivo; conditions: 20 mg/kg i.p. biweekly from 6 weeks of age until mortality
Description: 129-Col4a3^tm1Dec/J mice were obtained from The Jackson Laboratory (Stock No:002908; COL4A3 KO). The mice comprise the Col4a3^tm1Dec mutation described e.g. in Cosgrove et al., Genes Dev. (1996) 10:2981-2992, which is hereby incorporated by reference in its entirety. 129-Col4a3^tm1Dec/J mice comprise a targeted mutation to Col4a3, resulting in progressive glomerulonephritis with microhematuria and proteinuria, and mice homozygous for the mutation typically die at about 8.5 weeks.
From 6 weeks of age, mice homozygous for the Col4a3^tm1Dec mutation were administered biweekly by intraperitoneal injection of 20 mg/kg of Enx203, or an isotype-matched control antibody, until mortality.

Col4a3−/− mice [6] = assay: Treatment study in Col4a3−/− mice: renal fibrosis (total renal collagen content, Masson's Trichrome staining); assay type: in vivo, mouse; conditions: 20 mg/kg 2x/week for 2.5 weeks from 6 weeks of age; vs IgG
Experimental: as §1
Kidney tissues were fixed for 48 hours at RT in 10% neutral-buffered formalin (NBF), dehydrated, embedded in paraffin, and sectioned at 7 μm. Transverse kidney sections were then stained with Masson's Trichrome according to standard protocol. Images of the sections were captured by light microscopy and blue-stained fibrotic areas were semi-quantitatively determined with Image-J software (color deconvolution-Masson Trichrome) from the whole kidney area (100×field, n=4 kidneys/group). Treatment and genotypes were not disclosed to investigators performing the histology and generating semi-quantitative readouts.

Col4a3−/− mice [7] = assay: Treatment study in Col4a3−/− mice: Wilms' Tumor 1 immunohistochemistry (podocytes); assay type: in vivo, mouse; conditions: blinded quantification; vs IgG, P=0.0002
Experimental: as §1
Kidneys were fixed in 10% neutral-buffered formalin (NBF), paraffinized, cut into 7 μm sections, incubated with primary antibodies overnight and visualized using an ImmPRESS HRP anti-rabbit IgG polymer detection kit (MP-7401, Vector Laboratories) with ImmPACT DAB Peroxidase Substrate (SK-4105, Vector Laboratories). Quantification of WT^+ve cells were performed in a blinded fashion from 4 images (200×field)/kidney (n=3-4 kidneys/group).

Col4a3−/− mice [8] = assay: Treatment study in Col4a3−/− mice: Western blot of kidney protein extracts; assay type: in vivo, mouse; conditions: vs IgG
Experimental: as §1
Western blot was carried out on total protein extracts from mouse kidney tissues. Kidneys were lysed in radioimmunoprecipitation assay (RIPA) buffer containing protease and phosphatase inhibitors (Thermo Scientifics), followed by centrifugation to clear the lysate. Protein concentrations were determined by Bradford assay (Bio-Rad). Protein lysates were separated by SDS-PAGE, transferred to PVDF membrane, and subjected to immunoblot analysis for various antibodies as outlined in the main text, figures, or and/or figure legends. Proteins were visualized using the ECL detection system (Pierce) with the appropriate secondary antibodies: anti-rabbit HRP or antimouse HRP.

Col4a3−/− mice [9] = assay: Treatment study in Col4a3−/− mice: renal function (BUN, serum creatinine, urinary albumin:creatinine) by colorimetric assays/ELISA; assay type: in vivo, mouse; conditions: study end, 8.5 weeks of age; X203 from week 6
Experimental: as §1
The levels of blood urea nitrogen (BUN) and creatinine in mouse serum were measured using Urea Assay Kit (ab83362, Abcam) and Creatinine Assay Kit (ab65340, Abcam), respectively. Urine albumin and creatinine levels were measured using Mouse Albumin ELISA kit (ab108792, Abcam) and Creatinine Assay Kit (ab204537, Abcam), respectively. All ELISA and colorimetric assays were performed according to the manufacturer's protocol.

Col4a3−/− mice [10] = assay: Treatment study in Col4a3−/− mice: renal mRNA expression by qPCR; assay type: in vivo, mouse
Experimental: as §1
Total RNA was extracted from snap-frozen kidney tissues using Trizol (Invitrogen) followed by RNeasy column (Qiagen) purification. cDNAs were synthesized with iScript™ cDNA synthesis kit (Bio-Rad) according to manufacturer's instructions. Gene expression analysis was performed on duplicate samples with either TaqMan (Applied Biosystems) or fast SYBR green (Qiagen) technology using StepOnePlus™ (Applied Biosystem) over 40 cycles. Expression data were normalized to GAPDH mRNA expression and fold change was calculated using […]. The sequences of specific TaqMan probes and SYBR green primers are available upon request.

IL-11Rα = molecular target: T1, IL-11Rα (Homo sapiens, UniProt Q14626); conditions: low affinity; cited from earlier work
T1 sequence (Q14626 23-422): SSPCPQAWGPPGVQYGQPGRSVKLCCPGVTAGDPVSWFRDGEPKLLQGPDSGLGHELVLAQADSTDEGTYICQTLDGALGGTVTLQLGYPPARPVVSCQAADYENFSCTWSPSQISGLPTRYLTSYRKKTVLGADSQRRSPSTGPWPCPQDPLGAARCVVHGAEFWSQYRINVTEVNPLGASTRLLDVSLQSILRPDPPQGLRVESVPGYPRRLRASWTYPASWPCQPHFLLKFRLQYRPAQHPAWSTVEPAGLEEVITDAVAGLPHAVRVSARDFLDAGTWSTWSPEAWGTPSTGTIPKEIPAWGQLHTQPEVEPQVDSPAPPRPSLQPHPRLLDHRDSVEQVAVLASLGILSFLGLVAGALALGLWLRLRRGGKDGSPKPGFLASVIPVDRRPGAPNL

COc1ccc2c(c1)c(CC(=O)O)c(C)n2C(=O)c1ccc(Cl)cc1 [indomethacin, reference compound]
expression of IL-11 [1]: reduction in the expression of IL-11

CCOC(=O)[C@H](CCc1ccccc1)N[C@@H](C)C(=O)N1[C@H](C(=O)O)C[C@@H]2CCC[C@@H]21 [ramipril]
beneficial effect of delayed treatment (Col4a3−/− mice [2]; treatment delayed until after proteinuria was established (6-week-old mice)): no beneficial effect; also recorded: ineffective
kidney dysfunction and lifespan (Col4a3−/− mice [2]; treatment of 4-week-old mice, prior to onset of proteinuria and tubulointerstitial fibrosis): attenuated kidney dysfunction and prolonged lifespan
improvement of median survival over untreated mice (Col4a3−/− mice [3]): 14 days
mean percentage lifespan extension (Col4a3−/− mice [3]): 25.40%

interferon-gamma (IFNγ): interferon-gamma
expression of IL-11 [1]: reduction in the expression of IL-11

B1: Enx203: mouse anti-mouse IL-11 IgG, neutralizing; VH SEQ ID NO:22, VL SEQ ID NO:23 (antibody, V domains shown)
VH: EVQLQQSGPELVKPGASVKIPCKASGYTFTDYNMDWVKQSHGKSLEWIGDINPHNGGPIYNQKFTGKATLTVDKSSSTAYMELRSLTSEDTAVYYCARGELGHWYFDVWGTGTTVTVSS
VL: DIVLTQSPASLAVSLGQRATISCRASKSVSTSGYSYIHWYQQKPGQPPKLLIYLASNLDSGVPARFSGSGSGTDFTLNIHPVEEEDAATYYCQHSRDLPPTFGGGTKLEIK
kidney mass (kidney weight) (Col4a3−/− mice [4]; 20 mg/kg 2x/week for 2.5 weeks from 6 weeks of age, vs IgG): preserved kidney mass
total body weight loss as a percentage of starting body weight (Col4a3−/− mice [4]; 20 mg/kg i.p. 2x/week for 2.5 weeks from 6 weeks of age, end of study, IgG control 30%, P=0.0003): 17%
median lifespan (Col4a3−/− mice [5]; 20 mg/kg 2x/week from 6 weeks of age until death, IgG control 62.5 days, P=0.0015): 88.5 days
extension of median life span (Col4a3−/− mice [5]; from 62.5 to 88.5 days, vs IgG): 41.6%
increase in survival relative to mice treated with isotype-matched control antibody (129-Col4a3^tm1Dec/J mice): up to 40%
kidney fibrosis by biochemical and histological assessments (Col4a3−/− mice [6]): reduced severity of renal fibrosis; also recorded: significantly less kidney fibrosis
improvement of median survival over untreated mice (Col4a3−/− mice [3]): 28 days
mean percentage lifespan extension (Col4a3−/− mice [3]): 41.93%
number of WT1-positive cells (podocytes) (Col4a3−/− mice [7]): restored towards normal; also recorded: restoration of podocytes
ERK and STAT3 phosphorylation in kidneys (Col4a3−/− mice [8]; 20 mg/kg 2x/week for 2.5 weeks from 6 weeks of age): largely reduced; also recorded: largely diminished
TGFβ upregulation in the kidneys (Col4a3−/− mice [8]; Western blot): significantly reduced the degree of TGFβ upregulation
Caspase 3 activation (Col4a3−/− mice [8]; kidney Western blot (cleaved Caspase 3)): reduced
alpha-smooth muscle actin (αSMA) and fibronectin protein (Col4a3−/− mice [8]; kidney, reduction seen on transcripts): confirmed at the protein level
podocyte markers WT1 and Podocin by immunoblotting (Col4a3−/− mice [8]; kidney): restored towards normal; also recorded: Preservation of podocytes
serum blood urea nitrogen (BUN) (Col4a3−/− mice [9]): improved renal function; also recorded: markedly lowered
serum creatinine (Cr) (Col4a3−/− mice [9]): improved renal function; also recorded: markedly lowered
urinary albumin:creatinine ratio (ACR) (Col4a3−/− mice [9]): reduced albuminuria; also recorded: markedly lowered
renal levels of extracellular matrix genes (Col1a1, Col1a2, Col3a1, Fn), Acta2 and pro-fibrotic factors (Il11, Tgfb1) (Col4a3−/− mice [10]; mRNA, 20 mg/kg 2x/week for 2.5 weeks from 6 weeks of age, vs IgG): all reduced
indicators of tubule damage (Kim1 and Ngal) (Col4a3−/− mice [10]; renal mRNA): restored by X203 administration towards the levels seen in wildtype mice
Tnfα expression (Col4a3−/− mice [10]; renal mRNA, vs IgG): reduced Tnfα expression
proinflammatory interleukins (Il6, Il1b) and CC chemokines (Ccl2, Ccl5) (Col4a3−/− mice [10]; renal mRNA, vs IgG): equally diminished

B2: IL-11: pleiotropic cytokine, member of the IL-6 family; human sequence SEQ ID NO:1 (protein)
chain: PGPPAGSPRVSSDPRADLDSAVLLTRSLLADTRQLAAQMRDKFPADGDHSLDSLPTLAMSAGTLGSLQLPGVLTRLRVDLMSYLRHVQWLRRAGGPSLKTLEPELGALQARLERLLRRLQLLMSRLALPQAAPDQPVIPLGPPASAWGSIRAAHAILGGLHLTLDWAVRGLLLLKTRL
Kd (IL-11Rα): ~22 nM
